# Results published in patent publication US20260132182A1 (published 2026).
# Read-outs that look alike come from different tables or passages of the source. Starred links: 1 amine or outer side, 2 acyl side, 3 side chain; linkers in the order of their positions; H or OH if unused. Non-standard residues stand in square brackets, D forms with d. Groups on a side chain read outwards from the residue. No end group written: not given here. *: point of attachment. Butyryl(4-SO2NHCO(CH2)16Tz) = O=C(CCCCCCCCCCCCCCCCc1nnn[nH]1)NS(=O)(=O)CCCC(=O)*; Decanoyl(10-(4-HOOC-PhO)) = O=C(O)c1ccc(OCCCCCCCCCC(=O)*)cc1; C20 diacid = O=C(O)CCCCCCCCCCCCCCCCCCC(=O)*; C18 diacid = O=C(O)CCCCCCCCCCCCCCCCC(=O)*; C16 diacid = O=C(O)CCCCCCCCCCCCCCC(=O)*; γGlu = O=C(O)[C@H](CCC(=O)[*:2])N[*:1]; εLys = N[C@@H](CCCCN[*:1])C(=O)[*:2]; Trx = NC[C@H]1CC[C@H](C(=O)O)CC1; AEEA = NCCOCCOCC(=O)O; Aib = CC(C)(N)C(=O)O
# T1: human amylin-3 (a) receptor (human, UniProt P30988 25-474; O60896 24-148)
# T1 sequence (looked up) 1: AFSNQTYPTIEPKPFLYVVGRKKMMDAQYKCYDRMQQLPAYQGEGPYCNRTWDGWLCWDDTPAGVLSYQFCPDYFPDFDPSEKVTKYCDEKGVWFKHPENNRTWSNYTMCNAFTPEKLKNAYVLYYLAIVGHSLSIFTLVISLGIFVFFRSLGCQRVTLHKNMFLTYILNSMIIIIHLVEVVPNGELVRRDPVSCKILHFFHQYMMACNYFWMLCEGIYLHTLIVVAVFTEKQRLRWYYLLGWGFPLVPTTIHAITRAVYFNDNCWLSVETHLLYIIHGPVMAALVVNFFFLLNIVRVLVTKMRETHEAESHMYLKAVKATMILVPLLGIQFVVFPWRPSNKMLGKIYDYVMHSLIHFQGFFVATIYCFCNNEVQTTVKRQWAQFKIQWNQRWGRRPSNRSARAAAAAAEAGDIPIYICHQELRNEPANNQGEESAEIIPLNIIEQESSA
# T1 sequence (looked up) 2: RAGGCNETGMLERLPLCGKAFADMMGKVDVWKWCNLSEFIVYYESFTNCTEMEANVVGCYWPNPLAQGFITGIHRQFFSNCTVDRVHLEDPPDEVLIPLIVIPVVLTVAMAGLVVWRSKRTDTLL
# Tests used:
# Experiment in all cases: cell-based or functional assay
# [1] = target: T1, human amylin-3 (a) receptor
# [2] = target: T2, human GLP-1 receptor (human, UniProt P43220 24-463)
# [3] = target: T1, human amylin-3 (a) receptor; remark: listed apart in the source
# [4] = target: T2, human GLP-1 receptor; remark: listed apart in the source
# [5] = target: T1, human amylin-3 (a) receptor; remark: listed apart in the source
# [6] = target: T2, human GLP-1 receptor; remark: listed apart in the source
Binder,Human AmyR3 potency [EC50 (pM)] [1] [pM],Human GLP-1R potency [EC50 (pM)] [2] [pM],Human AmyR3 potency [EC50 (pM)] [3] [pM],also measured
Compound 0110 (peptide) peptide: H[Aib]EGTFTSDVSSYLEEQAARK([εLys-AEEA-AEEA-γGlu-C18 diacid])FIAWLVRGK([εLys-AEEA-AEEA-γGlu-C18 diacid])GGGGGGGGGEASELSTAALGRLSAELHELATLPRTETGSGSP-NH2,40.7,2.7,,
Compound 0115 (peptide) peptide: H[Aib]EGTFTSDVSSYLEEQAAREFIAWLVRGRK([AEEA-AEEA-γGlu-C18 diacid])EASELSTAALGRLSAELHELATLPRTETGSGSP-NH2,22.8,2.2,,
Comparator compound 0016 (ends and bridges not checked) peptide: H[Aib]EGTFTSDVSSYLEGQAAK([AEEA-AEEA-γGlu-C18 diacid])EFIAWLVRGRGGQEPGQEPK([AEEA-AEEA-γGlu-C18 diacid])CNTATCATQRLAEFLRHSSNNFGPILPPTNVGSNTP-NH2,,,1550,Human GLP-1R potency [EC50 (pM)] [4]: 510 pM
Comparator compound 0185 (peptide) peptide: H[Aib]EGTFTSDVSSYLEGQAAKEFIAWLVRGRK([εLys-AEEA-AEEA-γGlu-C18 diacid])GGEASELSTAALGRPSAELHELATLPRTETGSGSP-NH2,,,5660,Human GLP-1R potency [EC50 (pM)] [4]: 13.1 pM
Comparator compound 0164 (peptide) peptide: H[Aib]EGTFTSDVSSYLEGQAAKEIFAWLVRGRK([εLys-AEEA-AEEA-γGlu-C18 diacid])GGEASELSTAALGRLSAELHELATLPRTETGSGSP-NH2,,,29.6,Human GLP-1R potency [EC50 (pM)] [4]: 852 pM
Compound 0099 (peptide) peptide: HWEGTFTSDVSSYLEEQAARK([AEEA-AEEA-γGlu-Decanoyl(10-(4-HOOC-PhO))])FIEWLVRGK([AEEA-AEEA-γGlu-Decanoyl(10-(4-HOOC-PhO))])GEGEASELSTAALGRLSAELHELATLPRTETGSGSP-NH2,44.9,9.6,,
EASELSTAALGRLSAELHELATLPRTETGSGSP-NH2 (not fully specified) [Compound 1806],,,,Human AmyR3 potency [EC50 (pM)] [5]: 5 pM
Compound 0098 (Lys21 and Lys30 each (10-(4-carboxyphenoxy)decanoyl-gGlu-Ado-Ado); C-terminal amide) peptide: HGEGTFTSDVSSYLEEQAARKFIEWLVRGKGEGGGGGGGGGEASELSTAALGRLSAELHELATLPRTETGSGSP,15.6,7.9,,
Compound 0101 (Lys21 and Lys30 each (10-(4-carboxyphenoxy)decanoyl-gGlu-Ado-Ado); C-terminal amide) peptide: HWEGTFTSDVSSYLEEQAARKFIEWLVRGKGEGGGGGGGGGEASELSTAALGRLSAELHELATLPRTETGSGSP,10.2,7.1,,
Compound 0109 (peptide) peptide: H[Aib]EGTFTSDVSSYLEEQAARK([AEEA-AEEA-γGlu-C18 diacid])FIAWLVRGK([AEEA-AEEA-γGlu-C18 diacid])GGGGGGGGGEASELSTAALGRLSAELHELATLPRTETGSGSP-NH2,19.1,3.2,,
Comparator compound 0671 (ends and bridges not checked) peptide: H[Aib]EGTFTSDVSSYLEEQAAREFIAWLVRGRK([AEEA-AEEA-γGlu-C18 diacid])GGGGEKCNTATCATQRLANFLVHSSNNFGPILPPTNVGSNTY-NH2,,,,Human AmyR3 potency [EC50 (pM)] [5]: 230 pM; Human GLP-1R potency [EC50 (pM)] [6]: 4.5 pM
Compound 0105 (peptide) peptide: H[Aib]EGTFTSDVSSYLEEQAARK([AEEA-AEEA-γGlu-C16 diacid])FIEWLVRGK([AEEA-AEEA-γGlu-C16 diacid])GEGQEPGGASELSTAALGRLSAELHELATLPRTETGSGSP-NH2,30.8,1.1,,
Comparator compound 0015 (ends and bridges not checked) peptide: H[Aib]EGTFTSDVSSYLEGQAAK([AEEA-AEEA-γGlu-C18 diacid])EFIAWLVRGRGGQEPGQEPCNTATCATQRLAEFLRHSSNNFGPILPPTNVGSNTP-NH2,,,312,Human GLP-1R potency [EC50 (pM)] [4]: 45 pM
Compound 0116 (peptide) peptide: H[Aib]EGTFTSDVSSYLEEQAARK([AEEA-AEEA-γGlu-C18 diacid])FIAWLVRGRK([AEEA-AEEA-γGlu-C18 diacid])GGEASELSTAALGRLSAELHELATLPRTETGSGSP-NH2,21.7,1.5,,
Comparator compound 0668 (ends and bridges not checked) peptide: H[Aib]EGTFTSDVSSYLEGQAAK([AEEA-AEEA-γGlu-C18 diacid])EFIAWLVRGRGGQEPGQEPK([γGlu-γGlu-C16 diacid])CNTATCATQRLADFLRHSSPNFGAIPSSTNVGSRTY-NH2,,,10000,Human GLP-1R potency [EC50 (pM)] [4]: 455 pM
Comparator compound 0672 (ends and bridges not checked) peptide: H[Aib]EGTFTSDVSSYLEEQAAREFIAWLVRGRK([AEEA-AEEA-γGlu-C18 diacid])GGGGEKCNTATCATQRLAEFLRHSSNNFGPILPPTNVGSNTP-NH2,,,,Human AmyR3 potency [EC50 (pM)] [5]: 606 pM; Human GLP-1R potency [EC50 (pM)] [6]: 2.2 pM
Compound 0100 (peptide) peptide: HWEGTFTSDVSSYLEEQAARK([AEEA-AEEA-γGlu-Decanoyl(10-(4-HOOC-PhO))])FIEWLVRGK([AEEA-AEEA-γGlu-Decanoyl(10-(4-HOOC-PhO))])GEGGGGGEASELSTAALGRLSAELHELATLPRTETGSGSP-NH2,30.4,6.8,,
Compound 0103 (peptide) peptide: H[Aib]EGTFTSDVSSYLEEQAAREFIAWLVRGRK(Butyryl(4-SO2NHCO(CH2)16Tz))EASELSTAALGRLSAELHELATLPRTETGSGSP-NH2,11.6,28.1,,
Compound 0102 (peptide) peptide: H[Aib]EGTFTSDVSSYLEEQAAREFIAWLVRGRK(Butyryl(4-SO2NHCO(CH2)16Tz))ELSTAALGRLSAELHELATLPRTETGSGSP-NH2,9.8,14.7,,
KCNTATCATQRLANFLVHSSNNFGPILPPTNVGSNTY [Pramlintide],,,7.8,Human AmyR3 potency [EC50 (pM)] [5]: 7.8 pM
Comparator compound 0192 (peptide) peptide: H[Aib]EGTFTSDVSSYLEEQAAREFIAWLVRGRK([AEEA-AEEA-γGlu-Trx-C20 diacid])GGGGEASELSTAALGRPSAELHELATLPRTETGSGSP-NH2,,,10000,Human GLP-1R potency [EC50 (pM)] [4]: 10.8 pM
Compound 0114 (peptide) peptide: H[Aib]EGTFTSDVSSYLEEQAAREFIAWLVRGRK([AEEA-AEEA-γGlu-C18 diacid])GGEASELSTAALGRLSAELHELATLPRTETGSGSP-NH2,17.5,1,,
Compound 0019 (peptide) peptide: H[Aib]EGTFTSDVSSYLEGQAAK([AEEA-AEEA-γGlu-C18 diacid])EFIAWLVRGRGGQEPGQEPEASELSTAALGRLSAELHELATLPRTETGSGSP-NH2,26.5,13.7,,
Compound 0097 (peptide) peptide: HGEGTFTSDVSSYLEEQAARK([AEEA-AEEA-γGlu-Decanoyl(10-(4-HOOC-PhO))])FIEWLVRGK([AEEA-AEEA-γGlu-Decanoyl(10-(4-HOOC-PhO))])GEGGGGGEASELSTAALGRLSAELHELATLPRTETGSGSP-NH2,93.1,10,,
Compound 0120 (peptide) peptide: H[Aib]EGTFTSDVSSYLEEQAAREFIAWLVRGRK([AEEA-AEEA-γGlu-Trx-C20 diacid])GGGGEASELSTAALGRLSAELHELATLPRTETGSGSP-NH2,10.6,9.1,,
Comparator compound 0167 (peptide) peptide: H[Aib]EGTFTSDVSSYLEEQAAREIFAWLVRGRK([AEEA-AEEA-γGlu-Trx-C20 diacid])GGGGEASELSTAALGRLSAELHELATLPRTETGSGSP-NH2,,,10.9,Human GLP-1R potency [EC50 (pM)] [4]: 10000 pM
